In the supplement of paper PMC9732359:
± gives the uncertainty stated by the source.

Assay: protein stability index of a GFP-peptide fusion (yeast GPS) (PSI 1-4); higher = more stable; sorted into four equal gates, so the index is relative within each strain
Outline: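 Yeast carrying a pooled library were grown to mid-log phase in leucine-free medium. Each library plasmid expresses Cherry and has a tiled 17-residue yeast protein peptide fused downstream of GFP. Cells were sorted into four equal gates by GFP/Cherry ratio, and plasmids from each gate were PCR-amplified, Illumina-sequenced and assigned to strains by barcode. Summing, across gates, the read frequency times the gate number gave each peptide's protein stability index.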

## EGLIIDTDKLPIKNRTS [SIN4]
doa10∆
  protein stability index: 2.79 ± 0.11
pdr5∆
  protein stability index: 2.85 ± 0.086
san1∆
  protein stability index: 2.76 ± 0.074
ubr1∆
  protein stability index: 2.94 ± 0.063

## VNETEAILYTKPGHVLQ [YGR119C/NUP57]
doa10∆
  protein stability index: 3 ± 0.15
pdr5∆
  protein stability index: 3.12 ± 0.13
san1∆
  protein stability index: 2.75 ± 0.13
ubr1∆
  protein stability index: 3.66 ± 0.21

## VGVVFGSGAANENPYNN [COR1]
doa10∆
  protein stability index: 3.24 ± 0.15
pdr5∆
  protein stability index: 3.23 ± 0.088
san1∆
  protein stability index: 3.21 ± 0.087
ubr1∆
  protein stability index: 3.07 ± 0.12

## TLSNGLIASHYGVSFFT [BRR2]
doa10∆
  protein stability index: 2.74 ± 0.055
pdr5∆
  protein stability index: 2.84 ± 0.045
san1∆
  protein stability index: 2.39 ± 0.059
ubr1∆
  protein stability index: 2.83 ± 0.04

## NNYPNVELTYSLNNSDS [BRR2]
doa10∆
  protein stability index: 2.99 ± 0.14
pdr5∆
  protein stability index: 2.42 ± 0.18

## RKQRVKKKTKKELELER [SWI1]
doa10∆
  protein stability index: 2.69 ± 0.13
pdr5∆
  protein stability index: 2.96 ± 0.13
san1∆
  protein stability index: 3.56 ± 0.12
ubr1∆
  protein stability index: 2.2 ± 0.13

## ERESSGAKDAEKSGISK [RPC17]
doa10∆
  protein stability index: 2.91 ± 0.18
pdr5∆
  protein stability index: 3.4 ± 0.3
ubr1∆
  protein stability index: 3.64 ± 0.16

## NSSESDEEESNDEKQKA [RPN13]
doa10∆
  protein stability index: 3.32 ± 0.17
pdr5∆
  protein stability index: 2.43 ± 0.21
ubr1∆
  protein stability index: 3.41 ± 0.088

## PTVKYNRKVRAGRGFTL [RPL13A]
doa10∆
  protein stability index: 2.62 ± 0.059
pdr5∆
  protein stability index: 2.87 ± 0.058
san1∆
  protein stability index: 2.94 ± 0.045
ubr1∆
  protein stability index: 2.78 ± 0.053

## LKQEIDRGLSIKLNGST [SNU114]
doa10∆
  protein stability index: 2.88 ± 0.092
pdr5∆
  protein stability index: 3.17 ± 0.11
san1∆
  protein stability index: 3 ± 0.099
ubr1∆
  protein stability index: 2.88 ± 0.09

## IDADSLEDIYTSAHEAI [RPL5]
doa10∆
  protein stability index: 2.98 ± 0.097
pdr5∆
  protein stability index: 3.02 ± 0.11
san1∆
  protein stability index: 2.9 ± 0.1
ubr1∆
  protein stability index: 3.13 ± 0.056

## KNEETPQNEKPPAYALL [RPC25]
doa10∆
  protein stability index: 2.27 ± 0.23
san1∆
  protein stability index: 2.05 ± 0.14
ubr1∆
  protein stability index: 2.74 ± 0.24

## MNLVLNECIEERVPKTQ [SMB1]
doa10∆
  protein stability index: 2.3 ± 0.23

## ALNNAIPGGPKFEPLYP [PRP8]
doa10∆
  protein stability index: 3.1 ± 0.069
pdr5∆
  protein stability index: 2.96 ± 0.086
san1∆
  protein stability index: 2.95 ± 0.09
ubr1∆
  protein stability index: 3.06 ± 0.046

## APLFKKNSSRPMPPIRG [SMD3]
doa10∆
  protein stability index: 2.42 ± 0.059
pdr5∆
  protein stability index: 2.29 ± 0.064
san1∆
  protein stability index: 2.39 ± 0.062
ubr1∆
  protein stability index: 2.5 ± 0.061

## NMGSLLGLCLVIQIVTG [COB]
doa10∆
  protein stability index: 2.67 ± 0.06
pdr5∆
  protein stability index: 2.58 ± 0.053
san1∆
  protein stability index: 2.59 ± 0.061
ubr1∆
  protein stability index: 3 ± 0.034

## EDETLRRIKEAEENLKK [YIL149C/MLP2]
doa10∆
  protein stability index: 3.54 ± 0.23
pdr5∆
  protein stability index: 3.54 ± 0.15
san1∆
  protein stability index: 3.26 ± 0.076
ubr1∆
  protein stability index: 3.69 ± 0.13

## ESKLIPQENDLESKMSE [SMC3]
doa10∆
  protein stability index: 2.81 ± 0.065
pdr5∆
  protein stability index: 3.05 ± 0.065
san1∆
  protein stability index: 3.15 ± 0.059
ubr1∆
  protein stability index: 3.01 ± 0.054

## NTGLLNKANIQALIHGL [RPN11]
doa10∆
  protein stability index: 3.02 ± 0.14
pdr5∆
  protein stability index: 2.88 ± 0.15
san1∆
  protein stability index: 2.09 ± 0.28
ubr1∆
  protein stability index: 2.67 ± 0.16

## SAVKRLLHVAVSDSNDD [RPN2]
doa10∆
  protein stability index: 2.39 ± 0.11
pdr5∆
  protein stability index: 3.06 ± 0.071
san1∆
  protein stability index: 2.56 ± 0.083
ubr1∆
  protein stability index: 2.69 ± 0.063

## IKIEPSADDDVNNGNIP [SIR3]
doa10∆
  protein stability index: 2.12 ± 0.098
pdr5∆
  protein stability index: 2.44 ± 0.14
san1∆
  protein stability index: 2.58 ± 0.15
ubr1∆
  protein stability index: 2.76 ± 0.13

## DQNNKKMVGLRGFNNQI [SNF2]
doa10∆
  protein stability index: 3.35 ± 0.065
pdr5∆
  protein stability index: 3.22 ± 0.072
san1∆
  protein stability index: 3.2 ± 0.072
ubr1∆
  protein stability index: 3.37 ± 0.044

## TNTFEGSGNNNEIESRQ [SNU114]
pdr5∆
  protein stability index: 3.48 ± 0.17
san1∆
  protein stability index: 3.25 ± 0.11

## MLWGGASMLGLFVFTEG [QCR10]
doa10∆
  protein stability index: 1.96 ± 0.14
pdr5∆
  protein stability index: 1.82 ± 0.11
san1∆
  protein stability index: 2.43 ± 0.26
ubr1∆
  protein stability index: 3.19 ± 0.2

## SGTKSEVLTYVNYLISN [YJL039C/NUP192]
doa10∆
  protein stability index: 2.52 ± 0.053
pdr5∆
  protein stability index: 2.5 ± 0.056
san1∆
  protein stability index: 2.54 ± 0.041
ubr1∆
  protein stability index: 2.58 ± 0.044

## LRKSELEYYAMLSKTKV [RPL30]
doa10∆
  protein stability index: 2.62 ± 0.075
pdr5∆
  protein stability index: 3.01 ± 0.078
san1∆
  protein stability index: 2.17 ± 0.07
ubr1∆
  protein stability index: 2.82 ± 0.068

## KPYSGKLLKVCLTMFED [ECM29]
doa10∆
  protein stability index: 2.18 ± 0.056
pdr5∆
  protein stability index: 2.17 ± 0.058
san1∆
  protein stability index: 2.67 ± 0.045
ubr1∆
  protein stability index: 2.36 ± 0.058

## VLLHGASLGIGLAAMGS [RPN2]
doa10∆
  protein stability index: 1.82 ± 0.071
pdr5∆
  protein stability index: 1.9 ± 0.069
san1∆
  protein stability index: 1.93 ± 0.072
ubr1∆
  protein stability index: 1.56 ± 0.065

## ELGEIIDEDIGNNVQEN [RMP1]
san1∆
  protein stability index: 3.02 ± 0.26

## NTLGKGQNCLDIDGIMD [SNU114]
doa10∆
  protein stability index: 3.3 ± 0.23
pdr5∆
  protein stability index: 3.15 ± 0.1
san1∆
  protein stability index: 3.02 ± 0.12
ubr1∆
  protein stability index: 3.2 ± 0.11

## IQHVGMINGRKLIKFET [FAS1]
doa10∆
  protein stability index: 2.82 ± 0.072
pdr5∆
  protein stability index: 2.85 ± 0.074
san1∆
  protein stability index: 3.05 ± 0.085
ubr1∆
  protein stability index: 2.81 ± 0.041

## NTVVGISGDISDMQHIE [PRE4]
doa10∆
  protein stability index: 2.94 ± 0.12
pdr5∆
  protein stability index: 3.29 ± 0.12
san1∆
  protein stability index: 3.15 ± 0.17
ubr1∆
  protein stability index: 2.82 ± 0.12

## TEVERAKSLLKLQLGQL [COR1]
doa10∆
  protein stability index: 1.42 ± 0.042
pdr5∆
  protein stability index: 1.31 ± 0.048
san1∆
  protein stability index: 1.36 ± 0.065
ubr1∆
  protein stability index: 1.37 ± 0.037

## GDKDTRADIVRNIILEA [ISW2]
doa10∆
  protein stability index: 2.1 ± 0.1
pdr5∆
  protein stability index: 2.41 ± 0.06
san1∆
  protein stability index: 2.09 ± 0.099
ubr1∆
  protein stability index: 2.56 ± 0.11

## CIIFITFEFINIAFDAH [YML031W/NDC1]
doa10∆
  protein stability index: 1.23 ± 0.043
pdr5∆
  protein stability index: 1.44 ± 0.044
san1∆
  protein stability index: 1.38 ± 0.085
ubr1∆
  protein stability index: 1.32 ± 0.032

## AKKLSSFDFGNENEDED [ARP9]
doa10∆
  protein stability index: 3.24 ± 0.11
pdr5∆
  protein stability index: 3.13 ± 0.12
ubr1∆
  protein stability index: 3.15 ± 0.087

## IKDSVREVGTKFTTVLA [ECM29]
doa10∆
  protein stability index: 2.77 ± 0.084
pdr5∆
  protein stability index: 2.6 ± 0.07
san1∆
  protein stability index: 2.22 ± 0.078
ubr1∆
  protein stability index: 2.42 ± 0.05

## AKNKSTRINGLNSNNSI [REC8]
doa10∆
  protein stability index: 3.43 ± 0.14
pdr5∆
  protein stability index: 3.15 ± 0.098
san1∆
  protein stability index: 3.25 ± 0.061
ubr1∆
  protein stability index: 3.27 ± 0.073

## MNVQDRRRLLGPAAAKP [MTR3]
doa10∆
  protein stability index: 3.23 ± 0.11
pdr5∆
  protein stability index: 3.1 ± 0.11
san1∆
  protein stability index: 2.96 ± 0.085
ubr1∆
  protein stability index: 2.97 ± 0.089

## LSNSNRFELHGDMTNSD [REC8]
doa10∆
  protein stability index: 2.82 ± 0.14
pdr5∆
  protein stability index: 3.13 ± 0.16
san1∆
  protein stability index: 2.58 ± 0.14
ubr1∆
  protein stability index: 2.7 ± 0.2

## SELDSNDFFIIYYTPAF [YJL039C/NUP192]
doa10∆
  protein stability index: 1.39 ± 0.065
pdr5∆
  protein stability index: 1.51 ± 0.041
san1∆
  protein stability index: 1.63 ± 0.075
ubr1∆
  protein stability index: 1.55 ± 0.044

## NDFKKIGRENENENEDD [POP5]
doa10∆
  protein stability index: 3.22 ± 0.11
pdr5∆
  protein stability index: 3.28 ± 0.097
san1∆
  protein stability index: 3.16 ± 0.067
ubr1∆
  protein stability index: 2.79 ± 0.11

## FELSFTGAPPYYYNTKI [YMR129W/POM152]
doa10∆
  protein stability index: 2.75 ± 0.089
pdr5∆
  protein stability index: 1.99 ± 0.12
san1∆
  protein stability index: 2.66 ± 0.15
ubr1∆
  protein stability index: 3.21 ± 0.12

## GIWNDLGSGSNVDVCVM [PUP1]
doa10∆
  protein stability index: 2.69 ± 0.27

## HFAWLPTHIWNAKRSHM [POP1]
doa10∆
  protein stability index: 1.99 ± 0.033
pdr5∆
  protein stability index: 1.67 ± 0.035
san1∆
  protein stability index: 1.45 ± 0.059
ubr1∆
  protein stability index: 1.5 ± 0.026

## LPNIYPSTRCKLKLLRM [RPT2]
doa10∆
  protein stability index: 1.33 ± 0.037
pdr5∆
  protein stability index: 1.43 ± 0.049
san1∆
  protein stability index: 1.37 ± 0.076
ubr1∆
  protein stability index: 1.59 ± 0.048

## LIYVNPFMLQWGIPLIK [FAS1]
doa10∆
  protein stability index: 1.45 ± 0.082
pdr5∆
  protein stability index: 1.4 ± 0.099
san1∆
  protein stability index: 1.13 ± 0.14
ubr1∆
  protein stability index: 1.65 ± 0.064

## KKDSKPAFSFGISNGSE [YLR335W/NUP2]
doa10∆
  protein stability index: 3.16 ± 0.067
pdr5∆
  protein stability index: 3.12 ± 0.069
san1∆
  protein stability index: 3.1 ± 0.044
ubr1∆
  protein stability index: 3.15 ± 0.058

## KAIELLEKALQGATNEG [SRP72]
pdr5∆
  protein stability index: 1.14 ± 0.18
ubr1∆
  protein stability index: 1.18 ± 0.22

## IAKPNTANAKHTSSNSR [SMB1]
doa10∆
  protein stability index: 2.93 ± 0.069
pdr5∆
  protein stability index: 2.73 ± 0.094
san1∆
  protein stability index: 2.72 ± 0.089
ubr1∆
  protein stability index: 2.87 ± 0.067

## LLNTDHTLDPSLLESGS [RPO21]
doa10∆
  protein stability index: 2.93 ± 0.085
pdr5∆
  protein stability index: 2.94 ± 0.099
san1∆
  protein stability index: 2.99 ± 0.079
ubr1∆
  protein stability index: 3.17 ± 0.059

## STKELKFSDIIQGISKM [BRN1]
doa10∆
  protein stability index: 3.16 ± 0.098
pdr5∆
  protein stability index: 3.33 ± 0.084
san1∆
  protein stability index: 3.18 ± 0.072
ubr1∆
  protein stability index: 3.35 ± 0.085

## VQMDKIRKIVRKDENQF [AAR2]
doa10∆
  protein stability index: 3.25 ± 0.17
pdr5∆
  protein stability index: 2.81 ± 0.18

## PFKFGKTSEKSENHTES [YOR098C/NUP1]
doa10∆
  protein stability index: 2.94 ± 0.16
pdr5∆
  protein stability index: 3.05 ± 0.14
san1∆
  protein stability index: 3.1 ± 0.15
ubr1∆
  protein stability index: 2.92 ± 0.17

## DILLRLCVLWDDLQSSV [YCG1]
doa10∆
  protein stability index: 1.65 ± 0.067
pdr5∆
  protein stability index: 1.4 ± 0.051
san1∆
  protein stability index: 1.72 ± 0.087
ubr1∆
  protein stability index: 2.11 ± 0.07
